One assay has as its target T1, cynomolgus monkey IL-17A (cynomolgus monkey (Macaca fascicularis)).
T1 chain: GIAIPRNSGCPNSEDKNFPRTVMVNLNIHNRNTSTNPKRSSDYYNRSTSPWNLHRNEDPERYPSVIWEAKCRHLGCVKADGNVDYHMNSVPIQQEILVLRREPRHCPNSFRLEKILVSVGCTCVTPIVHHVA
Description: SPR (Biacore T200), cynomolgus IL-17A (Trenzyme), scFv as analyte. (In general: Surface plasmon resonance follows binding to a sensor surface in real time, without labels.)

Another assay addresses T2, human IL-17B (human, UniProt Q9UHF5 21-180).
T2 sequence: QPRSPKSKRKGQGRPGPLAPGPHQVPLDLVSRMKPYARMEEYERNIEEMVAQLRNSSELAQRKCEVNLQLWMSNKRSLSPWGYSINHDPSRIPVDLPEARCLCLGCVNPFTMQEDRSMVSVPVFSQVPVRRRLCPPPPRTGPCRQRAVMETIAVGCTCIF
Kind of assay: competition ELISA: coated scFv, biotinylated IL-17A, unlabeled cytokine as competitor. Background: An ELISA detects its analyte on a solid surface through an enzyme-linked reagent.

A further assay has as its target T3, human IL-17C (human, UniProt Q9P0M4 19-197).
T3 sequence: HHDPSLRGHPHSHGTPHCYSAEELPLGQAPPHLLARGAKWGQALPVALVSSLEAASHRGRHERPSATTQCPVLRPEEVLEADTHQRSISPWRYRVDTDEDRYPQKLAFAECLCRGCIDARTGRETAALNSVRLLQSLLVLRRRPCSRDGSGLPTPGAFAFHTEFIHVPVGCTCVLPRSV
The description is as above.

The next assay concerns the target T4, human IL-17D (human, UniProt Q8TAD2 16-202, limits assumed).
T4 sequence: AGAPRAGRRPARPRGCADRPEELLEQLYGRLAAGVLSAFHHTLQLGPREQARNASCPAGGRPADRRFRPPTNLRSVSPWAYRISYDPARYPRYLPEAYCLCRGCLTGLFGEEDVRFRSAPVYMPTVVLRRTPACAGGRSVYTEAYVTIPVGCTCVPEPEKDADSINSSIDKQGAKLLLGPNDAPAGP
The assay is described as above.

In a further assay the target is T5, human IL-17E (human, UniProt Q9H293 33-177).
T5 construct: also called IL-25
T5 sequence: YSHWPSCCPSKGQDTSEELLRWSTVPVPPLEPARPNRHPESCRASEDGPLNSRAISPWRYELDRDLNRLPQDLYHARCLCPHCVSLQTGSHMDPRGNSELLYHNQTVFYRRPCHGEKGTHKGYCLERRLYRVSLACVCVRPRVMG
The description is as above.

The target in another assay is T6, human IL-17F (human, UniProt Q96PD4 31-163).
T6 construct: Peprotech Cat. No. 200-25 in the direct ELISA
T6 sequence: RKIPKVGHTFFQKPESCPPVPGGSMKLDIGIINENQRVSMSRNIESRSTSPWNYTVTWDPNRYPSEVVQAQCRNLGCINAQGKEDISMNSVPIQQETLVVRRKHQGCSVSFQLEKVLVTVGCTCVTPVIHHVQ
The description is as above.

B1: PRO571 (scFv)
scFv: DIQMTQSPSSLSASVGDRVTITCQASESIYRYLSWYQQKPGKAPKLLIYLASTLTSGVPSRFSGSGSGTDFTLTISSLQPEDFATYYCQSNFGTASTTYYNTFGGGTKLTVLGGGGGSGGGGSGGGGSGGGGSEVQLVESGGGLVQPGGSLRLSCAASGFSFSGFYYMCWVRQAPGKGLEWIGCIDTGDGTTYYASWAKGRFTISRDNSKNTVYLQMNSLRAEDTAVYYCARDAAYGGYAYPAHGMDLWGQGTLVTVSS
notes: also called 27-31-C04-sc01; 27_31_C04_sc01
Molecule B1 had a Kd with cynomolgus monkey IL-17A of 0.0331 nM. In the assay with cynomolgus monkey IL-17A, this molecule showed a dissociation rate constant (koff) of 3.88e-05 s⁻¹. This molecule registered a kon in the assay with cynomolgus monkey IL-17A of 1.17e+06 M⁻¹ s⁻¹. The binding result with human IL-17B, with human IL-17C, in the assay with human IL-17D, in the assay with human IL-17E and with human IL-17F was “no binding” each time.

B2: PRO592 (scFv)
scFv: DIQMTQSPSSLSASVGDRVTITCQASESIYRYLSWYQQKPGKAPKLLIYLASTLTSGVPSRFSGSGSGTDFTLTISSLQPEDFATYYCQSNFGTASTTYYNTFGGGTKLTVLGGGGGSGGGGSGGGGSGGGGSEVQLVESGGGLVQPGGSLTLSCAASGFSFSGFYYMCWVRQAPGKGLEWIGCIDTGDGTTYYASWAKGRFTISRDNSKNTVYLQMNSLRAEDTAVYYCARDAAYGGYAYPAHGMDLWGPGTLVTVSS
notes: also called 27-31-C04-sc02; 27_31_C04_sc02
As for B2, binding in the assay with cynomolgus monkey IL-17A was put at a Kd of 0.16 nM. Besides, the koff in the assay with cynomolgus monkey IL-17A came to 5.38e-05 s⁻¹. Further, the kon with cynomolgus monkey IL-17A is 336000 M⁻¹ s⁻¹. Further, the binding result with human IL-17B, with human IL-17C, with human IL-17D, with human IL-17E and with human IL-17F was “no binding” in each case.

The Kd is the free concentration of one partner at which half of the binding sites on the other are occupied at equilibrium, for simple one-to-one binding. As usually defined, the koff is the rate constant with which the complex falls apart. The kon is a measure of how fast the partners come together.
